Data on 3 molecules can be found in article PMC2175199 (The Journal of Cell Biology, 2000).

One experiment deals with T1, hSA2 (human (endogenous in HeLa), UniProt Q8N3U4 1-1231).
T1 sequence: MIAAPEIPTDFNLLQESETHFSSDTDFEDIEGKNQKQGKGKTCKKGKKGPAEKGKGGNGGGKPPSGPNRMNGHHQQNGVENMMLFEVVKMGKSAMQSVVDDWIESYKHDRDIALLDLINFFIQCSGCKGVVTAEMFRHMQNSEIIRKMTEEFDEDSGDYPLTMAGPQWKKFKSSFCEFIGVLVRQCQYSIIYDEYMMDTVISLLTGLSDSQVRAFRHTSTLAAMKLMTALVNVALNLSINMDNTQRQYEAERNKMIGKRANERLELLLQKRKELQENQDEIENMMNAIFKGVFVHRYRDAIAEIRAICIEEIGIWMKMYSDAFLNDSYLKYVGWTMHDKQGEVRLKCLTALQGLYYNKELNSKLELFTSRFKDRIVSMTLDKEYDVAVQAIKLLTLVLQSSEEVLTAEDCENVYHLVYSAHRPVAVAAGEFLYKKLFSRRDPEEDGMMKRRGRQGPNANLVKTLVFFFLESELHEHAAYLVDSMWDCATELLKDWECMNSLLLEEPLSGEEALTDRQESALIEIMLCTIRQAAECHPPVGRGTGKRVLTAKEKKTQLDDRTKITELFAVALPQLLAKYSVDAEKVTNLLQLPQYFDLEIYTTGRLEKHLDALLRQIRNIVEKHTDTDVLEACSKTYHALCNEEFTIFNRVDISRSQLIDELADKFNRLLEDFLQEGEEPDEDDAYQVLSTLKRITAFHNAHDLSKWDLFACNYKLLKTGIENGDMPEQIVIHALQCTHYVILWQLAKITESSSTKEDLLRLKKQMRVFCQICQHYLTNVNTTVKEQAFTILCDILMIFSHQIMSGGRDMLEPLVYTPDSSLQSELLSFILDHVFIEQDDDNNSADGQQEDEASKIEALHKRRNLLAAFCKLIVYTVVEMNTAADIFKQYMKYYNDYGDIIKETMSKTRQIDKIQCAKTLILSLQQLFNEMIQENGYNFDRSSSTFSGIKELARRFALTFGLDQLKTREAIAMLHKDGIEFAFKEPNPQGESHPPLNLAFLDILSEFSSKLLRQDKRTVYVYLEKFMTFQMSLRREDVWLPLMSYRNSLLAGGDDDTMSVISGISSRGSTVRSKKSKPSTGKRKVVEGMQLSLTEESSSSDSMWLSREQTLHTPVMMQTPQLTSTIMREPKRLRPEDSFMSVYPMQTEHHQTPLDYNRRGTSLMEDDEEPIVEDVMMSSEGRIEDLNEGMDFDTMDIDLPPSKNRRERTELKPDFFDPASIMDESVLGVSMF
Put plainly: co-IP.

In the next experiment the target is T2, hSA1 (human (endogenous in HeLa), UniProt Q8WVM7 1-1258).
T2 sequence: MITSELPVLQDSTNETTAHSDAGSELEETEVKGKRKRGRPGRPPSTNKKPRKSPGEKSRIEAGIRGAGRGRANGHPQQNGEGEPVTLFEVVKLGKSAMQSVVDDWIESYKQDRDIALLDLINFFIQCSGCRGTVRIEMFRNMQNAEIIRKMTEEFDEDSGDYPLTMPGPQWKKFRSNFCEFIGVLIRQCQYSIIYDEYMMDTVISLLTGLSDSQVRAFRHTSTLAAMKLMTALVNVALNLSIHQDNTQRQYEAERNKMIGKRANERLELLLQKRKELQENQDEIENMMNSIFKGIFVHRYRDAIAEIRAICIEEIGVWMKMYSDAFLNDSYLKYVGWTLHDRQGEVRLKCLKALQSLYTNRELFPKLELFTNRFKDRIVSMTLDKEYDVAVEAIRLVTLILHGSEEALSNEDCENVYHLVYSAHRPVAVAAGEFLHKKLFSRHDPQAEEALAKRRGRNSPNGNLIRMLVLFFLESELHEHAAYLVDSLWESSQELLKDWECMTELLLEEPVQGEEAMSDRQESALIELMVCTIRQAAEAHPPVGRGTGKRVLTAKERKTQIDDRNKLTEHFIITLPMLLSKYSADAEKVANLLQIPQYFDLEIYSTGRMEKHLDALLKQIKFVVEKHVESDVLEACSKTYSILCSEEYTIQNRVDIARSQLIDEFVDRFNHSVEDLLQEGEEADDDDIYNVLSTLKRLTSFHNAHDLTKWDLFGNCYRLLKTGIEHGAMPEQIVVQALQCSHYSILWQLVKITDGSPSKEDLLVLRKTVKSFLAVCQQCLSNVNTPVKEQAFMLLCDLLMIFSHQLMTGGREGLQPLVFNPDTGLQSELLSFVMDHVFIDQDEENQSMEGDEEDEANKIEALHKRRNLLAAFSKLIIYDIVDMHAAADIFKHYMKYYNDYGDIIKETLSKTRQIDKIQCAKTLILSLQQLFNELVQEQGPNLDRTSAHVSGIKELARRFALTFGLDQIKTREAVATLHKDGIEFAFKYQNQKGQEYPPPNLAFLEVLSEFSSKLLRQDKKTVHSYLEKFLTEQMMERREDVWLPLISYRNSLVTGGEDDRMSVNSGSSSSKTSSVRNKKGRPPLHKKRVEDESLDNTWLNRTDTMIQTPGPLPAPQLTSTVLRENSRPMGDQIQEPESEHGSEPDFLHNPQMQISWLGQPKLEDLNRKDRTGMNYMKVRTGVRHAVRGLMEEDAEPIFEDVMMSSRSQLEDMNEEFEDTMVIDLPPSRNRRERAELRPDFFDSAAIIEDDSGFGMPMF
As to the kind of experiment: co-IP.

B1: hSMC3 (natural protein)
chain: MYIKQVIIQGFRSYRDQTIVDPFSSKHNVIVGRNGSGKSNFFYAIQFVLSDEFSHLRPEQRLALLHEGTGPRVISAFVEIIFDNSDNRLPIDKEEVSLRRVIGAKKDQYFLDKKMVTKNDVMNLLESAGFSRSNPYYIVKQGKINQMATAPDSQRLKLLREVAGTRVYDERKEESISLMKETEGKREKINELLKYIEERLHTLEEEKEELAQYQKWDKMRRALEYTIYNQELNETRAKLDELSAKRETSGEKSRQLRDAQQDARDKMEDIERQVRELKTKISAMKEEKEQLSAERQEQIKQRTKLELKAKDLQDELAGNSEQRKRLLKERQKLLEKIEEKQKELAETEPKFNSVKEKEERGIARLAQATQERTDLYAKQGRGSQFTSKEERDKWIKKELKSLDQAINDKKRQIAAIHKDLEDTEANKEKNLEQYNKLDQDLNEVKARVEELDRKYYEVKNKKDELQSERNYLWREENAEQQALAAKREDLEKKQQLLRAATGKAILNGIDSINKVLDHFRRKGINQHVQNGYHGIVMNNFECEPAFYTCVEVTAGNRLFYHIVDSDEVSTKILMEFNKMNLPGEVTFLPLNKLDVRDTAYPETNDAIPMISKLRYNPRFDKAFKHVFGKTLICRSMEVSTQLARAFTMDCITLEGDQVSHRGALTGGYYDTRKSRLELQKDVRKAEEELGELEAKLNENLRRNIERINNEIDQLMNQMQQIETQQRKFKASRDSILSEMKMLKEKRQQSEKTFMPKQRSLQSLEASLHAMESTRESLKAELGTDLLSQLSLEDQKRVDALNDEIRQLQQENRQLLNERIKLEGIITRVETYLNENLRKRLDQVEQELNELRETEGGTVLTATTSELEAINKRVKDTMARSEDLDNSIDKTEAGIKELQKSMERWKNMEKEHMDAINHDTKELEKMTNRQGMLLKKKEECMKKIRELGSLPQEAFEKYQTLSLKQLFRKLEQCNTELKKYSHVNKKALDQFVNFSEQKEKLIKRQEELDRGYKSIMELMNVLELRKYEAIQLTFKQVSKNFSEVFQKLVPGGKATLVMKKGDVEGSQSQDEGEGSGESERGSGSQSSVPSVDQFTGVGIRVSFTGKQGEMREMQQLSGGQKSLVALALIFAIQKCDPAPFYLFDEIDQALDAQHRKAVSDMIMELAVHAQFITTTFRPELLESADKFYGVKFRNKVSHIDVITAEMAKDFVEDDTTHG
With B1, the “percent removed from the extract by anti-XSA2” value (“percent removed … by anti-XSA2” below) with hSA2 is roughly 75%. The “percent removed from the extract by anti-XSA1” value (“percent removed … by anti-XSA1” below) in the experiment with hSA1 was roughly 25%.

B2: hRAD21 (natural protein)
chain: MFYAHFVLSKRGPLAKIWLAAHWDKKLTKAHVFECNLESSVESIISPKVKMALRTSGHLLLGVVRIYHRKAKYLLADCNEAFIKIKMAFRPGVVDLPEENREAAYNAITLPEEFHDFDQPLPDLDDIDVAQQFSLNQSRVEEITMREEVGNISILQENDFGDFGMDDREIMREGSAFEDDDMLVSTTTSNLLLESEQSTSNLNEKINHLEYEDQYKDDNFGEGNDGGILDDKLISNNDGGIFDDPPALSEAGVMLPEQPAHDDMDEDDNVSMGGPDSPDSVDPVEPMPTMTDQTTLVPNEEEAFALEPIDITVKETKAKRKRKLIVDSVKELDSKTIRAQLSDYSDIVTTLDLAPPTKKLMMWKETGGVEKLFSLPAQPLWNNRLLKLFTRCLTPLVPEDLRKRRKGGEADNLDEFLKEFENPEVPREDQQQQHQQRDVIDEPIIEEPSRLQESVMEASRTNIDESAMPPPPPQGVKRKAGQIDPEPVMPPQQVEQMEIPPVELPPEEPPNICQLIPELELLPEKEKEKEKEKEDDEEEEDEDASGGDQDQEERRWNKRTQQMLHGLQRALAKTGAESISLLELCRNTNRKQAAAKFYSFLVLKKQQAIELTQEEPYSDIIATPGPRFHII
In the case of B2, in the experiment with hSA2, the “percent removed … by anti-XSA2” value is roughly 75%. Moreover, the “percent removed … by anti-XSA1” value with hSA1 is roughly 25%.

B3: hSMC1 (natural protein)
chain: MGFLKLIEIENFKSYKGRQIIGPFQRFTAIIGPNGSGKSNLMDAISFVLGEKTSNLRVKTLRDLIHGAPVGKPAANRAFVSMVYSEEGAEDRTFARVIVGGSSEYKINNKVVQLHEYSEELEKLGILIKARNFLVFQGAVESIAMKNPKERTALFEEISRSGELAQEYDKRKKEMVKAEEDTQFNYHRKKNIAAERKEAKQEKEEADRYQRLKDEVVRAQVQLQLFKLYHNEVEIEKLNKELASKNKEIEKDKKRMDKVEDELKEKKKELGKMMREQQQIEKEIKEKDSELNQKRPQYIKAKENTSHKIKKLEAAKKSLQNAQKHYKKRKGDMDELEKEMLSVEKARQEFEERMEEESQSQGRDLTLEENQVKKYHRLKEEASKRAATLAQELEKFNRDQKADQDRLDLEERKKVETEAKIKQKLREIEENQKRIEKLEEYITTSKQSLEEQKKLEGELTEEVEMAKRRIDEINKELNQVMEQLGDARIDRQESSRQQRKAEIMESIKRLYPGSVYGRLIDLCQPTQKKYQIAVTKVLGKNMDAIIVDSEKTGRDCIQYIKEQRGEPETFLPLDYLEVKPTDEKLRELKGAKLVIDVIRYEPPHIKKALQYACGNALVCDNVEDARRIAFGGHQRHKTVALDGTLFQKSGVISGGASDLKAKARRWDEKAVDKLKEKKERLTEELKEQMKAKRKEAELRQVQSQAHGLQMRLKYSQSDLEQTKTRHLALNLQEKSKLESELANFGPRINDIKRIIQSREREMKDLKEKMNQVEDEVFEEFCREIGVRNIREFEEEKVKRQNEIAKKRLEFENQKTRLGIQLDFEKNQLKEDQDKVHMWEQTVKKDENEIEKLKKEEQRHMKIIDETMAQLQDLKNQHLAKKSEVNDKNHEMEEIRKKLGGANKEMTHLQKEVTAIETKLEQKRSDRHNLLQACKMQDIKLPLSKGTMDDISQEEGSSQGEDSVSGSQRISSIYAREALIEIDYGDLCEDLKDAQAEEEIKQEMNTLQQKLNEQQSVLQRIAAPNMKAMEKLESVRDKFQETSDEFEAARKRAKKAKQAFEQIKKERFDRFNACFESVATNIDEIYKALSRNSSAQAFLGPENPEEPYLDGINYNCVAPGKRFRPMDNLSGGEKTVAALALLFAIHSYKPAPFFVLDEIDAALDNTNIGKVANYIKEQSTCNFQAIVISLKEEFYTKAESLIGVYPEQGDCVISKVLTFDLTKYPDANPNPNEQ
Consider B3, for which, in the experiment with hSA2, the “percent removed … by anti-XSA2” value was roughly 75%. Besides, the “percent removed … by anti-XSA1” value with hSA1 was roughly 25%.
